# Assay results as given in patent US20020019514A1 (Harvard, published 2002).
# T1: CIITA (expressed from the CIITA expression vector pCMV.CIITA) (UniProt P33076 1-1130)
# T1 sequence (looked up): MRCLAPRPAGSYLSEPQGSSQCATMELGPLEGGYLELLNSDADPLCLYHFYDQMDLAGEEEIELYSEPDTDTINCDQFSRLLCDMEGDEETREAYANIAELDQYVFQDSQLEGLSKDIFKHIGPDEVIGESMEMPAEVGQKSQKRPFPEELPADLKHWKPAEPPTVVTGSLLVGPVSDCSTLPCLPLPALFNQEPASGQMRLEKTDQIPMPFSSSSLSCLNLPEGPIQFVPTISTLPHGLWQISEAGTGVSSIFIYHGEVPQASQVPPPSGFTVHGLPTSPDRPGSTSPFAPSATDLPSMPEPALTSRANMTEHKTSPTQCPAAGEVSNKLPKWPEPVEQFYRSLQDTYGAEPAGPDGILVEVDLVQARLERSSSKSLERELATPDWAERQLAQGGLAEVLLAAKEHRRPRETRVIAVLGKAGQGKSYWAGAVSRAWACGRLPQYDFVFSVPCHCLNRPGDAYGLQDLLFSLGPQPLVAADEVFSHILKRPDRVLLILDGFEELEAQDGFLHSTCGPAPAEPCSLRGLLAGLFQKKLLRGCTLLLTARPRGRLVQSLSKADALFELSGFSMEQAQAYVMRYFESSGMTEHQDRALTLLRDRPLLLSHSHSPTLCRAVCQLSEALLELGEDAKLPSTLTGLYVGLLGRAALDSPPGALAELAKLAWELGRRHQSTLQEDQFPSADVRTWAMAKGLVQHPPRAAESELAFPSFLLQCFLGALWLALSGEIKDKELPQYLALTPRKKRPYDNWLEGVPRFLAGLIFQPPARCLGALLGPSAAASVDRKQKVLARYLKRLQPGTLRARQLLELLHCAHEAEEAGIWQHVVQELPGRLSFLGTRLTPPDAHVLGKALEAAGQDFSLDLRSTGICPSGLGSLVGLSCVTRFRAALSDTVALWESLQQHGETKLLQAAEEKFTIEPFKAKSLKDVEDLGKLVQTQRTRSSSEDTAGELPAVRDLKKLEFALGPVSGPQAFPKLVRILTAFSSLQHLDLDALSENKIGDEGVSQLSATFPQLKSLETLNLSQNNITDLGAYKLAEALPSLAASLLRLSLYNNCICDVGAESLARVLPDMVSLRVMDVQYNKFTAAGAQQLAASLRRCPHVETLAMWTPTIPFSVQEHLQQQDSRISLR
# B1: CIITA-Interacting Protein 104 (CIP104) (other)
# chain: MKMLDESIRKEEEQQQHEAGVAPQPPLKEPFASLQSPFPTDTAPTTTAPAVAVTTTTTTTTTTTATQEEEKKPPPALPPPPPLAKFPPPSQPQPPPPPPPSPASLLKSLASVLEGQKYCYRGTGAAVSTRPGPLPTTQYSPGPPSGATALPPTSAAPSAQGSPQPSASSSSQFSTSGGPWARERRAGEEPVPGPMTPTQPPPPLSLPPARSESEVLEEISRACETLVERVGRSATDPADPVDTAEPADSGTERLLPPAQAKEEAGGVAAVSGSCKRRQKEHQKEHRRHRRACKDSVGRRPREGRAKAKAKVPKEKSRRVLGNLDLQSEEIQGREKSRPDLGGASKAKPPTAPAPPSAPAPSAQPTPPSASVPGKKAREEAPGPPGVSRADMLKLRSLSEGPPKELKIRLIKVESGDKETFIASEVEERRLRMADLTISHCAADVVRASRNAKVKGKFRESYLSPAQSVKPKINTEEKLPREKLNPPTPSIYLESKRDAFSPVLLQFCTDPRNPITVIRGLAGSLRLNLGLFSTKTLVEASGEHTVEVRTQVQQPSDENWDLTGTRQIWPCESSRSHTTIAKYAQYQASSFQESLQEEKESEDEESEEPDSTTGTPPSSAPDPKNHHIIKFGTNIDLSDAKRWKPQLQELLKLPAFMRVTSTGNMLSHVGHTILGMNTVQLYMKVPGSRTPGHQENNNFWSVNINIGPGDCEWFAVHEHYWETIRAFCDRHGVDYLTGSWWPILDDLYASNIPVYRFVQRPGDLVWINAGTVHWVQATGWCNNIAWNVGPLTAYQYQLALERYEWNEVKNVKSIVPMIHVSWNVARTVKISDPDLFKMIKFCLLQSMKHCQVQRESLVRAGKKIAYQGRVKDEPAYYCNDCDVEVFNILFVTSENGSRNTYLVHCEGCARRRSAGLQGVVVLEQYRTEELAQAYDAFTLAPASTSR
# Biological target: T1, CIITA (expressed from the CIITA …)
# Experiment: cell-based or functional assay
binder,measurement,value
B1,CIITA-mediated DRα-CAT expression (DRα promoter CAT reporter in cotransfected cells),~30 fold
